These results are taken from publication PMC11048322, “Weak Value Amplification-Based Biochip for Highly Sensitive Detection and Identification of Breast Cancer Exosomes”.

Conditions in all cases: protein: native; label: Au NP (about 58 nm) via thiol
Data set [1] concerns the target T1, EpCAM (on MDA-MB-231 exosomes) (UniProt P16422 24-314).
T1 sequence: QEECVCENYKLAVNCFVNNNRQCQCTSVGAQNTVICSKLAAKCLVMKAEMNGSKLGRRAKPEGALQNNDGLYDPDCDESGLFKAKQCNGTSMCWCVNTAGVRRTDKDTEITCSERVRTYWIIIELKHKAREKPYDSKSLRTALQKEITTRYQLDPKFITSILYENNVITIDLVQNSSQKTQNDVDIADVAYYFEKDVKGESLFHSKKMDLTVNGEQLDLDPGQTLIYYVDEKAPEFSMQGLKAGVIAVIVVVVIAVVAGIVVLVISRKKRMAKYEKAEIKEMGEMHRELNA
As to the kind of experiment: weak value amplification optical biosensor; multivalent Au NP-aptamer on exosomes; CW shift about 0.85 nm; Au NP-aptamer dispersed in ultrapure water, flowed over exosomes captured on Zr-ionized glass; pH and temperature not stated.

Data set [2] has as its target T2, CD63 (on MDA-MB-231 exosomes) (UniProt P08962 2-238). As to the kind of experiment: weak value amplification optical biosensor; TEM; multivalent Au NP-aptamer on exosomes; Au NP-aptamer dispersed in ultrapure water, flowed over exosomes captured on Zr-ionized glass; pH and temperature not stated.
In data set [3] the target is T2, CD63 (on MDA-MB-231 exosomes). As to the kind of experiment: weak value amplification optical biosensor; multivalent Au NP-aptamer on exosomes; no significant CW shift; Au NP-aptamer dispersed in ultrapure water, flowed over exosomes captured on Zr-ionized glass; pH and temperature not stated.

T2 sequence (P08962 2-238): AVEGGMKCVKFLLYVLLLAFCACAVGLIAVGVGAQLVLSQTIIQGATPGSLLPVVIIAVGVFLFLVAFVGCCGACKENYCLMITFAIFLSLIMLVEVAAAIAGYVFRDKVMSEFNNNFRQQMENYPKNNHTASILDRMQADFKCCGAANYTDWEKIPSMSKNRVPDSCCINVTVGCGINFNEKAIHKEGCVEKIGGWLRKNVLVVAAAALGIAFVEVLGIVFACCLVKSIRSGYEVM

As for CACTACAGAGGTTGCGTCTGTCCCACGTTGTCATGGGGGGTTGGCCTG (ssDNA, 5'-SH C6) [EpCAM aptamer], the binding result in data set [1] is given as “binds”.

Regarding CACCCCACCTCGCTCCCGTGACACTAATGCTA (ssDNA, 5'-SH C6) [CD63 aptamer], the binding result in data set [2] was “binds”. Take ACTCTTCACCCGCACATTCGCATCGCCCAAGC (ssDNA, 5'-SH C6) [Scrambled CD63 (SCD63)]: the binding result in data set [3] is “no binding”.
